Measured values from US20100092994A1.
Square brackets hold non-standard residues; d marks the D form. Ends that are not written are not given here. Hyp = O=C(O)[C@@H]1C[C@@H](O)CN1

Columns and labels:
[1] = target: monoclonal antibody derived from clone 11A5 (Anti HP-FGA MAb Clone: 11A5; hybridoma FERM AP-21698); assay: competitive ELISA; reference is the unmodified peptide ESS-HP (SEQ ID NO: 2)
[2] = target: monoclonal antibody derived from clone 11G7; assay: as above
[3] = target: monoclonal antibody derived from clone 11A5 (Anti HP-FGA MAb Clone: 11A5; hybridoma FERM AP-21698); assay: competitive ELISA: free peptide prereacted with antibody supernatant, then added to the solid-phased oxidatively modified peptide
[4] = target: monoclonal antibody derived from clone 11G7; assay: as above

B1: synthetic peptide ESS (SEQ ID NO: 4), ESSSHHP(OH)GIAEFPSR, oxidatively modified FGA partial peptide (peptide)
peptide: ESSSHH[Hyp]GIAEFPSR
With B1 the fold of 50% inhibition against ESS-HP (SEQ ID NO: 2) [1] was > 25 times, the fold of 50% inhibition against ESS-HP (SEQ ID NO: 2) [2] was > 25 times and the IC50 [3] was 0.4 µg/mL. It also gave an IC50 [4] of 0.4 µg/mL.
